Reference: patent US11680267B2, “Co-regulatory sequences based on tetracycline and Cumate” (Shenzhen Eureka Biotechnology Co., Ltd., priority 2020, dated 2023)

Test system: 293T(T&C)-TRE3GCuO-Luc cells and 293T(T&C)-TRE3GCuO-BGI-Luc cells
Test: Luciferase assay in stable cell lines under different combinations of DOX and Cumate (Example 5)
Type: cell-based
Settings: for induced transcription activity: 24 hours, stable cell line
Description: In this Example, stable cell lines, under complex regulation of Tet-ON and Cumate, TRE3GCuO or TRE3GCuO-intron, and with Luciferase as the reporter gene, were constructed. Then, based on these cell lines, induced transcription activities of the reporter gene under the following 4 induction conditions were detected: without inducer, Cumate only, DOX only or both DOX and Cumate inducers. In this Example, the Luciferase reporter gene was taken as an example, and in principle, the method of the present disclosure was not affected by the nucleic acid fragment of interest. The specific experimental methods were as follows:
293T cells were seeded at 1.5E+06 cells per 60 mm culture dish, and cultured in DMEM (Sigam, D6429) complete medium supplemented with 10% FBS (ExCell, 11H116) at 37° C. and 5% CO 2. After 24 hours of culture, transfection was carried out according to the PEI method. During transfection, 500 μL of transfection reagent which contained 5.5 ug of total plasmid was added to each 60 mm culture dish, and the mass ratio of total plasmid to PEI MAX (Polysciences, 24765-1) was 1:4; and thereby 3 Luciferase stable cell lines were constructed. The transfection plasmids were transfected at the 19BF075:19BF229:18BF019 molar ratio of 5:5:1 to obtain 293T(T&C)-CMV-BGI-Luc cells; the transfection plasmids were transfected at the 19BF075:19BF235:18BF019 molar ratio of 5:5:1 to obtain 293T(T&C)-TRE3GCuO-Luc cells; the transfection plasmids were transfected at the 19BF075:19BF237:18BF019 molar ratio of 5:5:1 to obtain 293T(T&C)-TRE3GCuO-BGI-Luc cells. The plasmid and PEI MAX were mixed uniformly, and then put into a culture dish after standing for 15 minutes. 3 hours after transfection, the medium was changed to a complete DMEM medium, and the transfection operation was completed. After 24 hours of transfection, the cells were digested with trypsin and all seeded in a 100 mm culture dish (Corning, 430167), and 200 μg/ml of hygromycin (Sangon Biotech A600230-0001) drug screening was performed for at least three passages. After the growth of cells under the pressure of drug screening was consistent with that of the original 293T cells, the above 3 cells were diluted to 1 cell per well by a limiting dilution method and seeded in a 96-well plate; when the cells grew to about 50% of the bottom area of the well, the wells with strong EGFP green fluorescence intensity and uniform luminescence were selected under the fluorescence microscope, and 3 independent clones of each cell were selected for the following experiments.
For the above 3 cells, 3 independent clones for each cell were seeded into a 96-well plate (Corning 3916) at 2.5E+04 cells per well, with 8 wells per clone, and the medium was 100 microliters of DMEM complete medium. After 24 hours of culture, the medium was replaced and the following reagents were added into the duplicate wells of the 8 wells for each cell: (1) the same amount of medium, (2) Cumate at a final concentration of 200 ug/ml, (3) DOX at a final concentration of 1 ug/ml, or (4) DOX at a final concentration of 1 ug/ml and Cumate at a final concentration of 200 ug/ml. After 24 hours of further culture, relative light unit RLU of each well was detected using a Steady-Glo® Luciferase Assay System (Promega, E2610) kit according to the instruction (Promega, FB037), wherein the detection instrument was a fluorescence microplate reader (Perkin Elmer Victor V).

B1: TRE3GCuO: Tet-On (7xTetO of TRE3G) and Cumate complex response element, CuO 50 bp behind the TATA box (SEQ ID NO: 23) (nucleic acid)
DNA: TCCCTATCAGTGATAGAGAACGTATGAAGAGTTTACTCCCTATCAGTGATAGAGAACGTATGCAGACTTTACTCCCTATCAGTGATAGAGAACGTATAAGGAGTTTACTCCCTATCAGTGATAGAGAACGTATGACCAGTTTACTCCCTATCAGTGATAGAGAACGTATCTACAGTTTACTCCCTATCAGTGATAGAGAACGTATATCCAGTTTACTCCCTATCAGTGATAGAGAACGTATTAGGCGTGTACGGTGGGCGCCTATAAAAGCAGAGCTCGTTTAGTGAACCGTCAGATCGCCTGGAGCAATTCCACATACAAACAGACCAGATTGTCTGTTTGTT
modifications: TRE3GCuO50 response element sequence
- induced transcription activity (adding both DOX 1 ug/ml and Cumate 200 ug/ml): 7.54E+06 RLU
- induced transcription activity relative to no induction (adding both DOX and Cumate): 2381.05 times
- induced transcription activity relative to only adding Cumate (adding both DOX and Cumate): 552.99 times
- induced transcription activity relative to only adding DOX (adding both DOX and Cumate): 35.19 times
- maximum induced transcription activity as % of that of CMV promoter (both DOX and Cumate inducers added): 47.84%
- induced transcription activity relative to no induction (only adding Cumate): 4.31 times
- induced transcription activity (only adding Cumate 200 ug/ml): 1.36E+04 RLU
- induced transcription activity relative to no induction (only adding DOX): 67.66 times
- induced transcription activity relative to only adding Cumate (only adding DOX): 15.71 times
- induced transcription activity (only adding DOX 1 ug/ml): 2.14E+05 RLU
